Reference: the supplement of paper PMC6755084

tested on: F1*sub RNA substrate (template-directed ligation); experiment: fraction ligated after 30 min (ligated reads / total reads); higher = more ligase activity; sequences stand for … in GAGACCGCAACTGAAAAGTTGT…AGTTCTGCACGTAGAAGCAAAAGGC; conditions: 42 °C
In short: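 Oligo-pool templates of ligase ribozyme variants were PCR-amplified, T7-transcribed and gel-purified. Ligated and unligated bands were gel-separated, reverse transcribed with barcoded primers, and MiSeq-sequenced; core bases were filtered at quality ≥20. Fraction ligated per variant was ligated reads over total reads.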

Row | Sequence | fraction ligated
1 | TATCACTTGTGTAAACCTTTGGATGGGTTGA [3d1745] | 0.807
2 | TACACTTGTCGTAAGAATTTGGATGGGTTGA [3d692] | 0.123
3 | TTCACTTGTGTAAGACACTTTGGATGGGTTGA [2d31] | 0.781
4 | TATCACTTGTCGTAAGACCTTTGATGGGTTG [3d2195] | 0.513
5 | TATCACTGTCGTAAGCACTTTGGATGGGTTG [3d1417] | 0.816
6 | ATACTTGTCGTAAGACACTTTGGATGGGTTGA [2d3] | 0.478
7 | TATCACTTGTCTAAGACACTTGGTGGGTTGA [3d1880] | 0.113
8 | TTCACTTGTCGAAGAACTTTGGATGGGTTGA [3d419] | 0.45
9 | TATCACTTGTCGTAAGACTTTGGATGGTTGA [3d2111] | 0.133
10 | TTCACTTGTCGTAAGACATTTGGAGGGTTGA [3d480] | 0.0169
11 | TATCCTTGTGTAAGAACTTTGGATGGGTTGA [3d1005] | 0.818
12 | TTACTTGTCGTAAGAACTTTGGATGGGTTGA [3d288] | 0.0626
13 | TATCACTTGTCGTAAGACACTTGGATGGTTA [3d2251] | 0.0219
14 | TATCACTTGCGTAAACACTTTGATGGGTTGA [3d1643] | 0.768
15 | TATCACTTGTCGTAAGAACTTTGGTGGTTGA [3d2173] | 0.0396
16 | TATACTTGTCGTAAGCACTTGGATGGGTTGA [3d896] | 0.645
17 | TATATTGTCGTAAGACACTTGGATGGGTTGA [3d770] | 0.641
18 | TATCTTGCGTAAGACACTTTGGATGGGTTGA [3d741] | 0.828
19 | TATCACTTGTCGTAAGCACTTTGGAGGGTTG [3d2147] | 0.116
20 | TATACTTGTCGTAAGACACTTTGGATGGGTTA [2d88] | 0.0592
21 | ATCACTTGTCGTGACACTTTGGATGGGTTGA [3d198] | 0.746
22 | TATCACTTGTCGTAAACACTTTGATGGGTTG [3d2093] | 0.682
23 | TATCACTTGTCGAAGCACTTTGGATGGGTTA [3d1933] | 0.723
24 | TACACTTGTCGTAAGACACTTTGGATGGTTA [3d734] | 0.405
25 | TACACTTGCGTAAGACACTTTGGATGGTTGA [3d614] | 0.102
26 | TTCCTTGTCGTAAGAACTTTGGATGGGTTGA [3d307] | 0.765

Row | Sequence | fraction ligated
27 | TATACTGTCGTAAGACACTTTGGATGGGTTGA [2d71] | 0.797
28 | TATCACTTGGTAAGACACTTTGATGGGTTGA [3d1593] | 0.776
29 | TATCACTGTCGTAAGACACTTTGGAGGTTGA [3d1457] | 0.0147
30 | ATCACTTGCGTAGACACTTTGGATGGGTTGA [3d143] | 0.818
31 | TATCATTGTCGTAAGACACTTTGGATGGGTTA [2d126] | 0.67
32 | TATCACTTGTCGTAAGCATTTGGATGGGTTA [3d2126] | 0.784
33 | TTCACTTGTCGAAGACCTTTGGATGGGTTGA [3d420] | 0.66
34 | TATCATTGTCGTAGACCTTTGGATGGGTTGA [3d1218] | 0.788
35 | ATACTTGTCGTAAGACACTTTGGATGGTTGA [3d64] | 0.21
36 | ACACTTGTCGTAAGCACTTTGGATGGGTTGA [3d35] | 0.221
37 | TATACTTGCGTAAGACACTTTGATGGGTTGA [3d822] | 0.285
38 | TATCCTTTCGTAGACACTTTGGATGGGTTGA [3d971] | 0.766
39 | TATCACTTTCGAAGACACTTTGGATGGGTTG [3d1505] | 0.792
40 | TATCACTTGTCGTAGACCTTTGGATGGGTTA [3d2026] | 0.798
41 | TATCACTGTCGTAAGACACTTTGGATGGTTGA [2d144] | 0.513
42 | TATCACTTGTCGTAAGACATTGGAGGGTTGA [3d2210] | 0.0593
43 | ATCATTGTCGTAGACACTTTGGATGGGTTGA [3d92] | 0.761
44 | TACCTTGTCGTAAACACTTTGGATGGGTTGA [3d535] | 0.418
45 | ATCACTTGTCGTAAGACACTTTGATGGGTTG [3d265] | 0.518
46 | TATCACTTGGTAAGACACTTTGGTGGGTTGA [3d1594] | 0.047
47 | TATCACTTGTGTAAGACACTTGATGGGTTGA [3d1787] | 0.8
48 | TATCACTTGTCGTAAGACACTTGGATGGTTG [3d2252] | 0.036
49 | TATCACTTGTGTAAGCATTTGGATGGGTTGA [3d1756] | 0.851
50 | TATCACTTGTCTAAGACCTTGGATGGGTTGA [3d1864] | 0.762
51 | TATCTTGTCGTAAGACATTTGGATGGGTTGA [3d750] | 0.806
52 | TATCACTTGTCTAAGACATTTGGAGGGTTGA [3d1874] | 0.0252

Row | Sequence | fraction ligated
53 | ATACTTGTCGTAAGACACTTGGATGGGTTGA [3d60] | 0.473
54 | TATCACTTGCAAGACACTTTGGATGGGTTGA [3d1599] | 0.798
55 | TTCACTTGTGTAAGACACTTTGGATGGTTGA [3d399] | 0.284
56 | TACACTTGTCGTAAGACCTTTGATGGGTTGA [3d701] | 0.0781
57 | TATCACTGTCGTAAACACTTTGGAGGGTTGA [3d1404] | 0.0511
58 | TTCACTTGTGTAAGACACTTTGGTGGGTTGA [3d397] | 0.00981
59 | TACATTGTCGTAAGACACTTTGGAGGGTTGA [3d562] | 0.16
60 | TATCACTTGTCGTAAGCACTTGGATGGGTTG [3d2134] | 0.76
61 | TATCACTTTCTAAACACTTTGGATGGGTTGA [3d1481] | 0.79
62 | TACACTTGTCGTAGACACTTTGATGGGTTGA [3d666] | 0.0743
63 | TATCACTTGTCGTAAACCTTTGGTGGGTTGA [3d2069] | 0.182
64 | TACATTGTCGTAAGACCTTTGGATGGGTTGA [3d557] | 0.214
65 | TATCCTTGTGTAAGACACTTTGGAGGGTTGA [3d1011] | 0.0114
66 | TTCACTTGTCGTAAGACACTTGGATGGGTTG [3d490] | 0.288
67 | TATCACTTCGTAAGACACTTTGATGGGTTGA [3d1321] | 0.795
68 | TATCACTTGTCGTAAGACCTTTGATGGTTGA [3d2193] | 0.0397
69 | TACACTTGTCGTAGACCTTTGGATGGGTTGA [3d663] | 0.173
70 | TACACTTGTCGTAAGACACTTTGGATGGTTG [3d735] | 0.507
71 | TATCATTGTCGTAGACACTTTGATGGGTTGA [3d1221] | 0.774
72 | TATCACTTGTCGTAAACCTTTGGATGGGTTA [3d2072] | 0.746
73 | TATCACTTGTGTAAGACCTTTGATGGGTTGA [3d1773] | 0.819
74 | TATCACTTGTGTAAACACTTTGATGGGTTGA [3d1748] | 0.831
75 | ACCTTGTCGTAAGACACTTTGGATGGGTTGA [3d25] | 0.616
76 | ATCACTTGTCGTAAGACCTTTGGATGGGTTA [3d244] | 0.645
77 | TATCACTTGTCTAGACATTTGGATGGGTTGA [3d1828] | 0.814
